Source: article PMC10515009, “A regulatory GhBPE-GhPRGL module maintains ray petal length in Gerbera hybrida”

Target: T1, GST-N-GhBPE (Gerbera hybrida)
T1 chain: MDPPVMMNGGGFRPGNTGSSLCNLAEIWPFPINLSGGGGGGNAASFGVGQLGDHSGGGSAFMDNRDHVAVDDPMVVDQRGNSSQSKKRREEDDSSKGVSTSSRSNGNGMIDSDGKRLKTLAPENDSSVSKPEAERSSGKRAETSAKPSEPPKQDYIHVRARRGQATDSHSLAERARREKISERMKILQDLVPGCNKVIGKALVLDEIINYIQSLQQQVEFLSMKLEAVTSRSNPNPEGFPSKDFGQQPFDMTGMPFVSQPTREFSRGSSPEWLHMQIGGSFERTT
Assay: EMSA; LightShift Chemiluminescent EMSA kit; buffer, salt, pH and temperature not stated (as Han et al. 2017)
Settings: protein: recombinant; vector pET32-GST; label: 5' biotin (Methods); blunt

B1: MUT-probe2 (both JA response elements mutated) (dsDNA)
DNA 1: AACACATAAAAAAATCTGTGGTTTTATTGGTTTGTTATTTATCAGATACATTTTAAATATTTAATCGATAATCAAATTTTTTATTAAACACCCACCCCCA
DNA 2: TGGGGGTGGGTGTTTAATAAAAAATTTGATTATCGATTAAATATTTAAAATGTATCTGATAAATAACAAACCAATAAAACCACAGATTTTTTTATGTGTT
binding result: no binding
